Assay results reported in publication PMC6166816 (Proceedings of the National Academy of Sciences of the …, 2018).
Where “and” joins values, the source holds several entries; their conditions need not be identical. Equal entries are not always repeated.

T1: MNoV (MNV1) strain CW3 VP1 protruding (P) domain (murine norovirus (MNV1 strain CW3), UniProt Q80J94 229-540)
T1 sequence: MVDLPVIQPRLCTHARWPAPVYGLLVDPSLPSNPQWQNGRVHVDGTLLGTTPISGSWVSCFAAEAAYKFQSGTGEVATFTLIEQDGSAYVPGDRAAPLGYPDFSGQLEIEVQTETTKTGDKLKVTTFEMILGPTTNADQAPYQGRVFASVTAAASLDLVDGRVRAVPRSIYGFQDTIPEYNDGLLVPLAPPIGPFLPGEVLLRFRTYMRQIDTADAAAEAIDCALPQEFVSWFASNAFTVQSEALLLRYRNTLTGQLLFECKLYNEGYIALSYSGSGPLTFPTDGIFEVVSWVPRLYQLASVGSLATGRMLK

B1: Fc–CD300lf fusion protein (Fc fusion)
chain: EDPVTGPEEVSGQEQGSLTVQCRYTSGWKDYKKYWCQGVPQRSCKTLVETDASEQLVKKNRVSIRDNQRDFIFTVTMEDLRMSDAGIYWCGITKGGLDPMFKVTVNIGP
B2: murine CD300lf ectodomain (receptor)
chain: MAEDPVTGPEEVSGQEQGSLTVQCRYTSGWKDYKKYWCQGVPQRSCKTLVETDASEQLVKKNRVSIRDNQRDFIFTVTMEDLRMSDAGIYWCGITKGGLDPMFKVTVNIGPVPT

What was measured:
[1] = target: T1, MNoV (MNV1) strain CW3 VP1 protruding …; test: BLI
[2] = target: T1, MNoV (MNV1) strain CW3 VP1 protruding …; test: ITC
[3] = target: T1, MNoV (MNV1) strain CW3 VP1 protruding …; test: SPR

| Binder | Kd [1] | Kd [2] | stoichiometry N [2] | Kd [3] |
| --- | --- | --- | --- | --- |
| B1 | 0.54 µM |  |  |  |
| B2 |  | 24.5 µM and ~24.3 µM and 12 µM | ~1 | 219 µM |
